Measured values: the nanobody polyreactivity screen of Harvey et al. (2022)

Experiment: yeast display, Sf9 membrane polyspecificity reagent, FACS + sequencing; frameworks hold sequencing errors
In short: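 Galactose-induced (36–48 hours) yeast carrying a synthetic nanobody display library were exposed to 10% biotinylated, detergent-solubilized Sf9 membrane reagent at 4 °C for 1 hour. FACS followed streptavidin microbead enrichment, using low and high (top ~1%) gates for expression (anti-HA) and reagent binding (streptavidin). Colony PCR, MiSeq 2 × 250 sequencing and CDR-length filtering followed. Labels for polyreactivity reflect the gate of origin.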

Sequence | polyreactivity (PSR sort gate)
QVQLVESGGGLVQAGGSLRLSCAASGLTFFGYTMGWYREAPGKEREFVADITWSGGSTYYADSVKGRFTISRDNAKNTVYLQMNSLKPEDTAVYYCSVAPPNWDPFVDDTYLMDYWGQGTQVTVSS | low polyreactivity
QVQLVESGGGLVQAGGSLRLSCAASGLTFGDYAMGWYRQAPGKERELVAVISRSGGSTYYADSVKGRFTISRDNAKNTVYLQMNSLKTEDTAVYYCDKDAGLQKYHHDYWGQGTQVTVSS | low polyreactivity
QVQLVESGGGLVQAGGSLRLSCAASGLTFGFNAMGWYRQAPWKERELDAAISSGGSTYYADSVKGRFTISRDNAKNTVYLQMNSLKPEDTAVYYCAKSGGSSQYWYGYWGQGTQVTVSS | high polyreactivity
QVQLVESGGGLVQAGGSLRLSCAASGLTFGLYAMGWYRQAPGKERELVAVITAGGRTYYADSVKGRFTISRDNAKNTVYLQMNSLKPEDTAVYYCATVNYGSGRGYRRVYTAYYYWGQGTQVTVSS | low polyreactivity
QVQLVESGGGLVQAGGSLRLSCAASGLTFGRNAMGWYRQAPWKERELVAAISRSGGRTSYADSVKGRFTISRDNAKNTVYLQMNSLKPEDTAVYYCAARSDVYTHDYWGQGTQVTVSS | high polyreactivity
QVQLVESGGGLVQAGGSLRLSCAASGLTFGSYAMGWYRQAPGKERELVAAISRSGGSTYYADSVKGRFTISRDNAKNTVYLQMNSLKPEDTAVYYCNAVNPYYAPTDRRVGYDYWGQGTQVTVSS | high polyreactivity
QVQLVESGGGLVQAGGSLRLSCAASGLTFGSYTMGWYRQAPGRERDLVAAITSDGSTNYADSVKGRFTISRDNAKNTVYLQMNSLKPEDTAVYYCNKGETLYGSVPYDYWGQGTQVTVSS | high polyreactivity
QVQLVESGGGLVQAGGSLRLSCAASGLTFGVNAMGWYRQAPGKERELVAAISGSGGRTNYADSVKGRFTISRDNAKNTVYLQMNSLKPEDTAVYYCNARFPDWALSEISHSTTYGYWGQGTQVTVSS | low polyreactivity
QVQLVESGGGLVQAGGSLRLSCAASGLTFGWNAMGWYRQAPGKERELVAGITSDTITHYADSVKGRFTISRDNAKNTVYLQMNSLKPEDTAVYYCAVPRGVASLQKVEFGYWGQGTQVTVSS | low polyreactivity
QVQLVESGGGLVQAGGSLRLSCAASGLTFGYYAMGWYRQAPGKEREFVASITWSGGTTYYADSVKGRFTISRDNAKNTVYLQMNSLKPEDTAVYYCAAQRSYAYEYWGQGTQVTVSS | high polyreactivity
QVQLVESGGGLVQAGGSLRLSCAASGLTFGYYSMGWYREAPGKERELVAAITYSGGSTYYADSVKGRFTISRDNAKNTVYLQMNSLKPEDTAVYYCAAEGPVYTTYEYWGQGTQVTVSS | low polyreactivity
QVQLVESGGGLVQAGGSLRLSCAASGLTFGYYVMGWYRQAPGKERELVAAISFRGVSTYYADSVKGRFTISRDNAKKTVDLQMNSLKPEDTAVNYCARRYTSKGGYDYWGQGTQVTVSS | high polyreactivity
QVQLVESGGGLVQAGGSLRLSCAASGLTFHRYAMGWYRQAPGKERELVAAINYSGGRTYYADSVKGRFTISRDNAKNTLYLQMNSLKPEDTAVYYCAAPRASGYYWGQGTQVTVSS | high polyreactivity
QVQLVESGGGLVQAGGSLRLSCAASGLTFHYYAMGWYRQAPGKERELVAAITATYYADSVKGRFTISRDNAKNTVYLQMNSLKPEDTAVYYCNAFLYPKQPLSPPDPTFEGGYWGQGTQVTVSS | low polyreactivity
QVQLVESGGGLVQAGGSLRLSCAASGLTFIEYAKGWYRQAPGKERELVAAISSGGRTYYADSVKGRFTISRDNAKNTVYLQMNSLKPEDTAVYYCNARGYRRWYNYWGQGTQVTVSS | high polyreactivity
QVQLVESGGGLVQAGGSLRLSCAASGLTFIFYAMGWYRQAPGKERELVATIRRSGSTYYADSVKGRFTISRDNAKNTVYLQMNSLKPEDTAVYYCNARYPYSYGDYWGQGTQVTVSS | high polyreactivity
QVQLVESGGGLVQAGGSLRLSCAASGLTFIYYAMGWYRQAPGKERELVAAISVSGGSTSYADSVKGRFTISRDNAKNTVYLQMNSLKPEDTAVYYCAADWFVHKPRYQYSFDYWGQGTQVTVSS | low polyreactivity
QVQLVESGGGLVQAGGSLRLSCAASGLTFKDNAMGWYRQAPGKERELVAAISKGGGSTFYADSVKGRFTISRDYAKNTVYFQMNSLKPEDTAVYYCNADVGYRGGEEVYWGQGTQVTVSS | low polyreactivity
QVQLVESGGGLVQAGGSLRLSCAASGLTFKLYVMGWYRQAPRKERELVAAISGGGSTYYADSVKGRFTISRDNAKNTVYLQMYSLKPEDTAVYYCAAVRYFEYEYWGQGTQVTVSS | low polyreactivity
QVQLVESGGGLVQAGGSLRLSCAASGLTFKSYAMGWYRQAPGKETELVAAISWRGGRTYYADSVKGRFTISRDNAKNTVYLQMNSLKPEDTAVYYCNARSQQWWLSRYNYWGQGTQVTVSS | high polyreactivity
QVQLVESGGGLVQAGGSLRLSCAASGLTFKTYAMGWYRQAPGKERELVAAISRSGGSTSYADSVKGRFTISRDNAKNTVYLQLNSLIPEDTEVYYCAAKTYEPRKYDYWGQGTQVTVSS | high polyreactivity

Sequence | polyreactivity (PSR sort gate)
QVQLVESGGGLVQAGGSLRLSCAASGLTFKYNAMGWYRQAPGKERELVAGISWSTSSTYYADSVKGRFTISRDNAKNTVYLQMNSLKPEDTAVYYCAVYTITGRVLRQGPLYRHYYWGQGTQVTVSS | high polyreactivity
QVQLVESGGGLVQAGGSLRLSCAASGLTFKYYAMGWYRQAPGKERELVAAITATGGRTYYADSVKGRFTISRDIAKNTVYLQLNSLNPEDTAVYYCNARQYQTYYFYKHDYWGQGTQVSVSS | high polyreactivity
QVQLVESGGGLVQAGGSLRLSCAASGLTFLGNAMGWYRQAPGKERELVASITFSGDSTYYADSVKGRFTISRDNAKNSVYLQMNSVKPEDTAVYYCAADGSRLYYWPFEYDYWGQGTQVTVSS | low polyreactivity
QVQLVESGGGLVQAGGSLRLSCAASGLTFLIYAMGWYIQAPRKERELVASITGRGGSTYYADSVKGRFTISRDNAKNTVYLQMNCLKPEDTAVYYCAASLRYYGLEMDYWGQGTQVTVSS | high polyreactivity
QVQLVESGGGLVQAGGSLRLSCAASGLTFNGYTMGWYRQAPGKERELVAGITHSGSTTYTDSVKGRFTISRDNAKNTVYLQMNSLKPEDTAVYYCNARLGKVRVKDDYWGQGTQVTVSS | low polyreactivity
QVQLVESGGGLVQAGGSLRLSCAASGLTFNLYAMGWYRQAPGKEWELVAAITRNGGSTYYADSVKGPFTISRDNAKNSVYLELNSLKPEDTAVYYCATGWLGTPYGYRRFGYWGQGTQVTVSS | high polyreactivity
QVQLVESGGGLVQAGGSLRLSCAASGLTFNRNAMGWYRQAPGKERELVARISRGGSTNYADSVKGRFTISRDNAKNTVYLQMNSLKPEDTAVYYCAKRGNPRSVVHYNSWGQGTQVTVSS | high polyreactivity
QVQLVESGGGLVQAGGSLRLSCAASGLTFNVYAMGWYRQAPGKERELVAAITRSTGRTYYADSVKGRFTISRDNAKNTVYLQMNSLIPEDTAVYYCNRVSRQYYYQRGFEYDYWGQGTQVTVSS | high polyreactivity
QVQLVESGGGLVQAGGSLRLSCAASGLTFNWNAMGWYRQAPGKERELVAAIRSSGGSTYADSVKGRFTISRDNAKNTVYLQMNSLKPEDTAVYYCAARSRVPPAGPRYDYWGQGTQVTVSS | high polyreactivity
QVQLVESGGGLVQAGGSLRLSCAASGLTFNYYDMGWYRQAPGKERELVAAISRSGTNTSYADSVKGRFTISRDNAKNTVYLQMNSLKPEDTAVYYCNAAGVYLAAGPFTANFNYNYWGQGTQVTVSS | low polyreactivity
QVQLVESGGGLVQAGGSLRLSCAASGLTFPGYVMGWYRQAPGKERELVAAITNGGRTYYADSVKGRFTISRDNAMNTVYLQMNSLKPEDTAVYYCNTARGSKDPPHYYWGQGTQVTVSS | high polyreactivity
QVQLVESGGGLVQAGGSLRLSCAASGLTFPKYAMGWYRQAPGKERELVAAITQRGGSTYYADSVKGRFTISRDNAKNTVYLQMNSLNPEDTAVYYSNARRRDYNNRREFDYWGQGTQVTVSS | high polyreactivity
QVQLVESGGGLVQAGGSLRLSCAASGLTFPPYAMGWSRQAPGNERELVAAISRIRGRTYYADSVKGRFTISRDTAKNTVYLQMNSLKPEDTAVYYCAADGIKGGDEYDYWGQGTQVTVSS | high polyreactivity
QVQLVESGGGLVQAGGSLRLSCAASGLTFPPYAMGWYRQAPGKERELVAAISWNGGNTYYADSVKGRFTISRDNAKNTVYLQMNSLKPEDTAVYYCAAKRGTQGMYYWGQGTQVTVSS | high polyreactivity
QVQLVESGGGLVQAGGSLRLSCAASGLTFPSYAMGWSRQAPGKERELVAAISRRSGSTYYADSVKGRFTICGDNAKYTVYLQMISLKPEDTAVYYCTTRRGERGYWGQGTQVTVSS | high polyreactivity
QVQLVESGGGLVQAGGSLRLSCAASGLTFPSYAMGWYRQAPGKERELVAVISSSGGRTYYADSVKGRFTISRDNAKNTVYLQMNSLIPEDTAVYYCNVGGFLRRRSYDYWGQGTQVTVSS | high polyreactivity
QVQLVESGGGLVQAGGSLRLSCAASGLTFPYNLMGWYRQAPGKERELVASITSVGTTDYADSVKGRFTISRDNAKNTVYLQMNSLKPEDTAVYYCAADVTMFYWWYGKEDYDFWGQGNQVTVSS | low polyreactivity
QVQLVESGGGLVQAGGSLRLSCAASGLTFQHYAMGWYRQAPGKERELVASISYSGGGTYADSVKGRFTISRDNAKNTVYLQMNSQKPEDTAVYYCATSLQRQFDYWGQGTQVTVSS | low polyreactivity
QVQLVESGGGLVQAGGSLRLSCAASGLTFQLYGMGWYRQAPGKERELVAAISGSGGRTYYADSVKGRFTISRDNAKNTVYLQMNSLKPEDTAVYYCAARPGSGRSYTSDYWGQGTQVNVSS | high polyreactivity
QVQLVESGGGLVQAGGSLRLSCAASGLTFQSNAMGWYRQAPGKEREFVAAITSGGNTYYADSVKGRFTISRDNAKNTVYLQMNSLKPEDTAVYYCNADYQDEEDDYWGQGTQVTVSS | low polyreactivity
